The values below come from paper PMC8313134, “Jasmonate‐ and abscisic acid‐activated AaGSW1‐AaTCP15/AaORA transcriptional cascade promotes artemisinin biosynthesis in Artemisia annua”.

Holding throughout (conditions): protein: recombinant; tags: His-TF (trigger factor), pCold-TF; chain copies: 2; blunt
In data set [1] the target is T1, AaTCP15 (Artemisia annua, UniProt A0A8E3YC86 1-384). The data set is described as follows: EMSA; cold Dq competitor reduces shift; not given; EMSA as described in Ma et al. 2018; cold competitor 10x, 20x, 40x. Background: In EMSA bound probe runs differently from free probe, usually more slowly.
T1 sequence (A0A8E3YC86 entry or part of it): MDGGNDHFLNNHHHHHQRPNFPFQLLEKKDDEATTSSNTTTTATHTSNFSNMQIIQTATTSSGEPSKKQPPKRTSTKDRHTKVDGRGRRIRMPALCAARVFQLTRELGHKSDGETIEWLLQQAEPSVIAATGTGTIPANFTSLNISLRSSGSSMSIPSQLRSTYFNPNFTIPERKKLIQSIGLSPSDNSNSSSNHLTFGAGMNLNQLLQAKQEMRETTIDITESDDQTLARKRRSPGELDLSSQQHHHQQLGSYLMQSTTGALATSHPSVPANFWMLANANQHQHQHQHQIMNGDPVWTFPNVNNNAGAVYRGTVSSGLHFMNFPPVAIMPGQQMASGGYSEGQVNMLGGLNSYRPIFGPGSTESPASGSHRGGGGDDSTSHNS
In data set [2] the target is T1, AaTCP15. Nature of the data set: EMSA; not given; EMSA as described in Ma et al. 2018; cold competitor 10x, 20x, 40x.
For data set [3], the target named is T1, AaTCP15. Nature of the data set: EMSA; cold Aq competitor reduces shift; not given; EMSA as described in Ma et al. 2018; cold competitor 10x, 20x, 40x.

Numbering of substitutions follows the chain as printed.

B1: Dq probe (DBR2 promoter) (dsDNA)
DNA 1: GTCGCTAAACTTGCCACGGTCCCACTTTTTCAACTCTTATTA
DNA 2: TAATAAGAGTTGAAAAAGTGGGACCGTGGCAAGTTTAGCGAC
On to B1, for which the binding result in the data set with AaTCP15 [1] is reported as “binds”.

B2: Dq mutated probe (dsDNA)
DNA 1: B1 DNA 1 with C21A, C22A, C23A, A24C, C25A
DNA 2: B1 DNA 2 with G18T, T19G, G20T, G21T, G22T
For B2, the binding result in the data set with AaTCP15 [2] is recorded as “no binding”.

B3: Aq probe (ALDH1 promoter) (dsDNA)
DNA 1: GGTTGGTTGCATTATCTGGCCCCACCGTAAACAATCAAATGC
DNA 2: GCATTTGATTGTTTACGGTGGGGCCAGATAATGCAACCAACC
As for B3, in the data set with AaTCP15 [3], the binding result is “binds”.
